According to patent publication US20250339531A1, “DUX4 POLYPEPTIDES AND NUCLEIC ACIDS FOR TREATING INFLAMMATORY AND AUTOIMMUNE CONDITIONS” (Fred Hutchinson Cancer Center, priority 2021, published 2025):

Assays:
[1] = molecular target: 4F2 cell-surface antigen heavy chain (Homo sapiens) (UniProt P08195); assay: anti-FLAG co-IP LC-MS, exp 3, +IFNg +Dox
[2] = molecular target: Prolyl 4-hydroxylase subunit alpha-1 (Homo sapiens) (UniProt P13674); assay: anti-FLAG co-IP LC-MS, exp 3, +IFNg +Dox
[3] = molecular target: Probable ATP-dependent RNA helicase DDX6 (Homo sapiens) (UniProt P26196); assay: anti-FLAG co-IP LC-MS, exp 3, +IFNg +Dox
[4] = molecular target: Procollagen-lysine, 2-oxoglutarate 5-dioxygenase 3 (Homo sapiens) (UniProt O60568); assay: anti-FLAG co-IP LC-MS, exp 3, +IFNg +Dox
[5] = molecular target: Protein disulfide-isomerase (Homo sapiens) (UniProt P07237); assay: anti-FLAG co-IP LC-MS, exp 3, +IFNg +Dox
[6] = molecular target: Stress-70 protein, mitochondrial (Homo sapiens) (UniProt P38646); assay: anti-FLAG co-IP LC-MS, exp 3, +IFNg +Dox
[7] = molecular target: 40S ribosomal protein S14 (Homo sapiens) (UniProt P62263); assay: anti-FLAG co-IP LC-MS, exp 3, +IFNg +Dox
[8] = molecular target: Reticulon-4 (Homo sapiens) (UniProt Q9NQC3); assay: anti-FLAG co-IP LC-MS, exp 3, +IFNg +Dox
[9] = molecular target: Nucleosome assembly protein 1-like 1 (Homo sapiens) (UniProt P55209); assay: anti-FLAG co-IP LC-MS, exp 3, +IFNg +Dox
[10] = molecular target: ADP/ATP translocase 2 (Homo sapiens) (UniProt P05141); assay: anti-FLAG co-IP LC-MS, exp 3, +IFNg +Dox
[11] = molecular target: 60S ribosomal protein L4 (Homo sapiens) (UniProt P36578); assay: anti-FLAG co-IP LC-MS, exp 3, +IFNg +Dox
[12] = molecular target: 60S ribosomal protein L7a (Homo sapiens) (UniProt P62424); assay: anti-FLAG co-IP LC-MS, exp 3, +IFNg +Dox
[13] = molecular target: X-ray repair cross-complementing protein 5 (Homo sapiens) (UniProt P13010); assay: anti-FLAG co-IP LC-MS, exp 3, +IFNg +Dox
[14] = molecular target: Alpha-actinin-4 (Homo sapiens) (UniProt O43707); assay: anti-FLAG co-IP LC-MS, exp 3, +IFNg +Dox
[15] = molecular target: Eukaryotic translation initiation factor 3 subunit A (Homo sapiens) (UniProt Q14152); assay: anti-FLAG co-IP LC-MS, exp 3, +IFNg +Dox
[16] = molecular target: 40S ribosomal protein S4, X isoform (Homo sapiens) (UniProt P62701); assay: anti-FLAG co-IP LC-MS, exp 3, +IFNg +Dox
[17] = molecular target: Endoplasmic reticulum chaperone BiP (Homo sapiens) (UniProt P11021); assay: anti-FLAG co-IP LC-MS, exp 3, +IFNg +Dox
[18] = molecular target: 60S ribosomal protein L29 (Homo sapiens) (UniProt P47914); assay: anti-FLAG co-IP LC-MS, exp 3, +IFNg +Dox
Serpin B3 (Homo sapiens) = Serpin B3 (Homo sapiens) (UniProt P29508); assay: anti-FLAG co-IP LC-MS, exp 3, +IFNg +Dox
[19] = molecular target: 40S ribosomal protein S8 (Homo sapiens) (UniProt P62241); assay: anti-FLAG co-IP LC-MS, exp 3, +IFNg +Dox
[20] = molecular target: Tubulin beta chain (Homo sapiens) (UniProt P07437); assay: anti-FLAG co-IP LC-MS, exp 3, +IFNg +Dox
[21] = molecular target: Ribosome-binding protein 1 (Homo sapiens) (UniProt Q9P2E9); assay: anti-FLAG co-IP LC-MS, exp 3, +IFNg +Dox
[22] = molecular target: 4F2 cell-surface antigen heavy chain (Homo sapiens) (UniProt P08195); assay: anti-FLAG co-IP LC-MS, exp 4, +Dox +IFNG
[23] = molecular target: Prolyl 4-hydroxylase subunit alpha-1 (Homo sapiens) (UniProt P13674); assay: anti-FLAG co-IP LC-MS, exp 4, +Dox +IFNG
[24] = molecular target: Phosphate carrier protein, mitochondrial (Homo sapiens) (UniProt Q00325); assay: anti-FLAG co-IP LC-MS, exp 4, +Dox +IFNG
[25] = molecular target: Protein disulfide-isomerase (Homo sapiens) (UniProt P07237); assay: anti-FLAG co-IP LC-MS, exp 4, +Dox +IFNG
[26] = molecular target: 60S ribosomal protein L5 (Homo sapiens) (UniProt P46777); assay: anti-FLAG co-IP LC-MS, exp 4, +Dox +IFNG
[27] = molecular target: Stress-70 protein, mitochondrial (Homo sapiens) (UniProt P38646); assay: anti-FLAG co-IP LC-MS, exp 4, +Dox +IFNG
[28] = molecular target: WD repeat-containing protein 1 (Homo sapiens) (UniProt O75083); assay: anti-FLAG co-IP LC-MS, exp 4, +Dox +IFNG
[29] = molecular target: 40S ribosomal protein S3a (Homo sapiens) (UniProt P61247); assay: anti-FLAG co-IP LC-MS, exp 4, +Dox +IFNG
[30] = molecular target: Transcription intermediary factor 1-beta (Homo sapiens) (UniProt Q13263); assay: anti-FLAG co-IP LC-MS, exp 4, +Dox +IFNG
Filamin-A (Homo sapiens) = Filamin-A (Homo sapiens) (UniProt P21333); assay: anti-FLAG co-IP LC-MS, exp 4, +Dox +IFNG
[31] = molecular target: Insulin-like growth factor 2 mRNA-binding protein 2 (Homo sapiens) (UniProt F8W930); assay: anti-FLAG co-IP LC-MS, exp 4, +Dox +IFNG
[32] = molecular target: Serine/threonine-protein kinase 38 (Homo sapiens) (UniProt Q15208); assay: anti-FLAG co-IP LC-MS, exp 4, +Dox +IFNG
[33] = molecular target: 40S ribosomal protein S8 (Homo sapiens) (UniProt P62241); assay: anti-FLAG co-IP LC-MS, exp 4, +Dox +IFNG
[34] = molecular target: Tubulin beta chain (Homo sapiens) (UniProt P07437); assay: anti-FLAG co-IP LC-MS, exp 4, +Dox +IFNG

Sequence of Prolyl 4-hydroxylase subunit alpha-1 (Homo sapiens) (P13674 18-534 limits assumed): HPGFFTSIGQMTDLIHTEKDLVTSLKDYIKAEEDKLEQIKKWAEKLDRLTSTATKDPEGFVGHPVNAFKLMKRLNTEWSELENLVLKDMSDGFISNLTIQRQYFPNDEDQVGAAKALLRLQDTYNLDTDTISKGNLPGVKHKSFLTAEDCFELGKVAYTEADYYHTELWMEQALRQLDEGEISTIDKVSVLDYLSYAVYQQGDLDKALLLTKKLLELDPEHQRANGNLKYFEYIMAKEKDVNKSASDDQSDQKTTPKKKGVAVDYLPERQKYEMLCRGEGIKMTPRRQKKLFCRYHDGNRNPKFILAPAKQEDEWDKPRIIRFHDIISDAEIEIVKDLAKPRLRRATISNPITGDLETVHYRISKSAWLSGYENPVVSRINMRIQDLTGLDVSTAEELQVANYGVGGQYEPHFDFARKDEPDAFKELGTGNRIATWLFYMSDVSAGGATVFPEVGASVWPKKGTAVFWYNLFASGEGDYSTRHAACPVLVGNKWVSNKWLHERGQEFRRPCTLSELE
Sequence of Tubulin beta chain (Homo sapiens) (P07437 whole entry): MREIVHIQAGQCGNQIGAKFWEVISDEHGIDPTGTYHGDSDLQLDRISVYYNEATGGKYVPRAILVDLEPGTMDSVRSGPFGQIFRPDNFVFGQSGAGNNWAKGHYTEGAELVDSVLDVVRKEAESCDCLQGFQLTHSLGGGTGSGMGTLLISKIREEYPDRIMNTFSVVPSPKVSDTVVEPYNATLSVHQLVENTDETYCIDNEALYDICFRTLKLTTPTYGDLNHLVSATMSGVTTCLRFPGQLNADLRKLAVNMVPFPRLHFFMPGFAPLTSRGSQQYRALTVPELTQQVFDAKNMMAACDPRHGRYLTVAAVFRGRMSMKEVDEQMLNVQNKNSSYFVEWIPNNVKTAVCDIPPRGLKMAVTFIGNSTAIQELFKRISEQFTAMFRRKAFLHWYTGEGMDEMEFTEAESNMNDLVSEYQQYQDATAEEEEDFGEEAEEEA
Sequence of Stress-70 protein, mitochondrial (Homo sapiens) (P38646 47-679 limits assumed): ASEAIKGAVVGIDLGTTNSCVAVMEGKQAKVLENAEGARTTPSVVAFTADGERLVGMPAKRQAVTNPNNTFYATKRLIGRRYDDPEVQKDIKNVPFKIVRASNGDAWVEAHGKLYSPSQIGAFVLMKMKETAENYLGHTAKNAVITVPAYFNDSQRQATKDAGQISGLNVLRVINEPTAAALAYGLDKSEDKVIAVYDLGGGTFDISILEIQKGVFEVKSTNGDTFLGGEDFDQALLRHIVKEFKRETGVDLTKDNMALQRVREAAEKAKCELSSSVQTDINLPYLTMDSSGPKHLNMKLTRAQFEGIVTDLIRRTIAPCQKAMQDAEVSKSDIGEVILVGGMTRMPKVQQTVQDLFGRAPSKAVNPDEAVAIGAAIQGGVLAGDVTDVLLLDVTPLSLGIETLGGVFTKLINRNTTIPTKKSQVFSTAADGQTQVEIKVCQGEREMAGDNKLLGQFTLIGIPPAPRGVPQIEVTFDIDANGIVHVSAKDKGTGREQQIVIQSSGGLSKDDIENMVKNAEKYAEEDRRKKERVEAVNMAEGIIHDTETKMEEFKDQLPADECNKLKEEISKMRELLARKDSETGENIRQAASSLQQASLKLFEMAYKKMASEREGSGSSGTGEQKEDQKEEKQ
Sequence of Protein disulfide-isomerase (Homo sapiens) (P07237 18-508 limits assumed): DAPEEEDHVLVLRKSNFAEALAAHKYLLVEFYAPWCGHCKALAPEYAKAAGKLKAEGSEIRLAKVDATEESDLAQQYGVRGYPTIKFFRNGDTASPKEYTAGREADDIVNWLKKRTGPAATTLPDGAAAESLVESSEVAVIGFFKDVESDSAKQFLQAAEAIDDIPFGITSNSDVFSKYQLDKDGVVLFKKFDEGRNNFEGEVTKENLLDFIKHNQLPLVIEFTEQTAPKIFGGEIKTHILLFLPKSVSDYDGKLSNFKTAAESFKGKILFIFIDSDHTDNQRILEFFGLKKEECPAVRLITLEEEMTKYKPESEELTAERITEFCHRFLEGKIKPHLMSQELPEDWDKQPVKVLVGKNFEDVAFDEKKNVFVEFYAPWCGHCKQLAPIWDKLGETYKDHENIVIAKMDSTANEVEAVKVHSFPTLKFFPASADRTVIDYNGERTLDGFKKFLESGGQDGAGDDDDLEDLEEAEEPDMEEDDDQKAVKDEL
Sequence of 4F2 cell-surface antigen heavy chain (Homo sapiens) (P08195 103-630 limits assumed): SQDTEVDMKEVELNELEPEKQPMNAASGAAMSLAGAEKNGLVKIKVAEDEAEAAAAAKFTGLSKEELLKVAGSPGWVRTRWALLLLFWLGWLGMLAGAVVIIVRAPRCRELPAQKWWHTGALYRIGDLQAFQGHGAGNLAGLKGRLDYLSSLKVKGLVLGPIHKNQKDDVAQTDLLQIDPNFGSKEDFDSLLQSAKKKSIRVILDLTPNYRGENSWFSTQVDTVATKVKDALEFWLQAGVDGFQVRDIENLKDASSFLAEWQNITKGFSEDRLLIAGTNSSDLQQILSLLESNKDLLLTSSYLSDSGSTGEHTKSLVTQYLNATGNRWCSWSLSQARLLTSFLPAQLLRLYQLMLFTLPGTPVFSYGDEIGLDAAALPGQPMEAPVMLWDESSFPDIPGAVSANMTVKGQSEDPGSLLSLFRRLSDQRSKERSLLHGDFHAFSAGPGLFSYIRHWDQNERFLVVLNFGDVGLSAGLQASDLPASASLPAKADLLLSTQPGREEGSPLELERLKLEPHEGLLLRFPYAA
Sequence of Reticulon-4 (Homo sapiens) (Q9NQC3 whole entry): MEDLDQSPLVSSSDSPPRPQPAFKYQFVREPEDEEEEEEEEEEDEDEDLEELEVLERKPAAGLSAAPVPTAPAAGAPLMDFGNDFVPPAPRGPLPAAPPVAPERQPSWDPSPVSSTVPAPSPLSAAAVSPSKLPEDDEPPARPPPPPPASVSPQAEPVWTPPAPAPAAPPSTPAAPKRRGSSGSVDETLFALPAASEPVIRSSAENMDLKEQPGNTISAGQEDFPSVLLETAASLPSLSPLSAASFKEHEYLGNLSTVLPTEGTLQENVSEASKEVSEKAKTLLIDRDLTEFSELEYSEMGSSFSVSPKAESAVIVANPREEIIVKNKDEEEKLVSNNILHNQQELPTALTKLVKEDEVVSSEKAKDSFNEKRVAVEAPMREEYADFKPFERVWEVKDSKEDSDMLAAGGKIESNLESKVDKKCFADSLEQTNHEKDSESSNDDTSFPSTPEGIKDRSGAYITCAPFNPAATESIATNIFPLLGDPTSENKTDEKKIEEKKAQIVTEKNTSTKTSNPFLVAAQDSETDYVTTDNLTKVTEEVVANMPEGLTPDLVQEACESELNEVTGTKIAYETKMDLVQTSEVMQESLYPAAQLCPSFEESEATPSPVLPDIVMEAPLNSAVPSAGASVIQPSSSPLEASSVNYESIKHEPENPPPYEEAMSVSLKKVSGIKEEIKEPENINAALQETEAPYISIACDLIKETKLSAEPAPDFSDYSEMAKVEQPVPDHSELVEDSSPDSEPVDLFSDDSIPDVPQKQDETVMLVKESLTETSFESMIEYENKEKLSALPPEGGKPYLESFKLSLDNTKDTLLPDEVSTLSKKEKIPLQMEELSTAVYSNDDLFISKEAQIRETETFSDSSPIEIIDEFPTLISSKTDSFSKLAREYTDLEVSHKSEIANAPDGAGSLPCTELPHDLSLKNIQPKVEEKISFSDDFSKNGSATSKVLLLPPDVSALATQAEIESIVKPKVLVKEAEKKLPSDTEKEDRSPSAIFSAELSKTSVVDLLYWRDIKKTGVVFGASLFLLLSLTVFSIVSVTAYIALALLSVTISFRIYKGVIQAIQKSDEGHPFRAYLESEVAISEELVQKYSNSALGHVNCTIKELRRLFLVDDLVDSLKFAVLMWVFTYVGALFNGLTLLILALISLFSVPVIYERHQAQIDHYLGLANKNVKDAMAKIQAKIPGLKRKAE
Sequence of Serpin B3 (Homo sapiens) (P29508 whole entry): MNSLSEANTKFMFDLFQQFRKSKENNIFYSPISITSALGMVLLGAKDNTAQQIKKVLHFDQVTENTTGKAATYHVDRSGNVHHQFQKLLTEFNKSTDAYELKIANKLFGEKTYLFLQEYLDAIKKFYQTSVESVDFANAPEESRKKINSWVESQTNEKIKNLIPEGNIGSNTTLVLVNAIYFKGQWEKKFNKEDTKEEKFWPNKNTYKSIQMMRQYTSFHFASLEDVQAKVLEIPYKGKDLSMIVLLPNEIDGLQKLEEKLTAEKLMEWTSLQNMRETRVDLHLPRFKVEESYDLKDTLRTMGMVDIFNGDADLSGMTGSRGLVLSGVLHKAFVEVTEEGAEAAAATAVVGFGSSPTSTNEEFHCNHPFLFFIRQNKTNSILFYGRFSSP
Sequence of ADP/ATP translocase 2 (Homo sapiens) (P05141 2-298 limits assumed): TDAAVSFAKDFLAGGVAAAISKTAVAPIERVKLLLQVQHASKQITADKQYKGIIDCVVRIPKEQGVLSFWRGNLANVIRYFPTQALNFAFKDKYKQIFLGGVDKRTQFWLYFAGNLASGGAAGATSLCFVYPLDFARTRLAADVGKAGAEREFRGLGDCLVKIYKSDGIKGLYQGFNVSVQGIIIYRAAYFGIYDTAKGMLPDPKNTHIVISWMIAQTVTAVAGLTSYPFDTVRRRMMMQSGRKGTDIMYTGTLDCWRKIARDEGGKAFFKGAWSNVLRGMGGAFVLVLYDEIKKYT
Sequence of Probable ATP-dependent RNA helicase DDX6 (Homo sapiens) (P26196 whole entry): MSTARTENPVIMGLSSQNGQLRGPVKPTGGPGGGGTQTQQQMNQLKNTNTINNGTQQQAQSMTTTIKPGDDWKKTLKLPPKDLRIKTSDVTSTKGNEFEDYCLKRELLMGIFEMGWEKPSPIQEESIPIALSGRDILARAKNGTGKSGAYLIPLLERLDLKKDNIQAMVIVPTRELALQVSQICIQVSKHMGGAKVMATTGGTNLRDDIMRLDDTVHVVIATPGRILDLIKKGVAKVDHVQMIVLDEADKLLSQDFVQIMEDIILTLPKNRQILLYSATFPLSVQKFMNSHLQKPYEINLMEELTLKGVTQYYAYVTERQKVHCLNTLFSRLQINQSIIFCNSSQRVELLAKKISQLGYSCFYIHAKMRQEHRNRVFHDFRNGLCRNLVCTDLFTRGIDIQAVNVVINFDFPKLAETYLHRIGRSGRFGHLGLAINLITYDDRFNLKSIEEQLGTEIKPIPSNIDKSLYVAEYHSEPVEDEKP

i3XFLAG-NLS-CTDaa154-424
PSMs [1]: 2 PSMs | PSMs [2]: 5 PSMs | PSMs [3]: 3 PSMs | PSMs [4]: 2 PSMs | PSMs [5]: 5 PSMs | PSMs [6]: 10 PSMs | PSMs [7]: 3 PSMs | PSMs [8]: 7 PSMs | PSMs [9]: 5 PSMs | PSMs [10]: 3 PSMs | PSMs [11]: 34 PSMs | PSMs [12]: 5 PSMs | PSMs [13]: 5 PSMs | PSMs [14]: 11 PSMs | PSMs [15]: 2 PSMs | PSMs [16]: 2 PSMs | PSMs [17]: 62 PSMs | PSMs [18]: 2 PSMs | PSMs (Serpin B3 (Homo sapiens)): 2 PSMs | PSMs [19]: 6 PSMs | PSMs [20]: 75 PSMs | PSMs [21]: 68 PSMs | PSMs [22]: 2 PSMs | PSMs [23]: 9 PSMs | PSMs [24]: 2 PSMs | PSMs [25]: 14 PSMs | PSMs [26]: 19 PSMs | PSMs [27]: 7 PSMs | PSMs [28]: 11 PSMs | PSMs [29]: 2 PSMs | PSMs [30]: 2 PSMs | PSMs (Filamin-A (Homo sapiens)): 10 PSMs | PSMs [31]: 2 PSMs | PSMs [32]: 6 PSMs | PSMs [33]: 2 PSMs | PSMs [34]: 110 PSMs
